Assay results: patent US20050112698A1 (Bayer, published 2005)

Assays:
Cynomolgus Monkey SCF [1] = target: T1, Cynomolgus Monkey SCF (cynomolgus monkey, UniProt A0A7N9CAX5 26-189); assay: cell-based or functional assay
Cynomolgus Monkey SCF [2] = target: T1, Cynomolgus Monkey SCF; assay: SPR BIAcore, 5000 RU immobilized cSCF, off-rate ranking
Description: (§1) TABLE 12 Sequences of the CDR3 Vk1 Region of Selected Antibody Clones with Comparison of koff and SCF Inhibitory Activity The off-rates were determined using a high density surface CM5 chip (5000 RU of immobilized cSCF) on BIAcore and are shown with comparison to the original A2-G8 clone. […] The IC₅₀ in the TF-1 proliferation assay was based on an average of two assays with the exception of the A2-G8-IgG (n = 5).
Analysis of Fab binding to cSCF was performed by surface plasmon resonance using a BIAcore 2000 (Biacore, Piscataway, N.J.), according to the manufacturer's instructions and a CM5 chip (Biacore) coated with cSCF. For amine coupling, a research grade CM5 chip was activated using the standard NHS/EDC procedure. Cynomologus monkey SCF was diluted to 20 μg/ml in 10 mM NaAcetate, pH 5.0, and a total of 5000 RU's were coupled to channel 2 of the sensor surface. The remaining active sites were quenched by the addition of 1M ethanolamine, pH 8.0. Channel 1 was subjected to the coupling procedure in the absence of protein and was used as a reference surface. Extracts were diluted 1/5 in HBS-EP running buffer and injected for 2 min using a flow rate of 20 μl/min. The surface was regenerated by two consecutive injections of 25 μl, 10 mM glycine, pH 2.5, using a flow rate of 100 μl/min. The koff was calculated from a single concentration of Fab using BIAevaluation software (Biacore).

Cynomolgus Monkey SCF [3] = target: T1, Cynomolgus Monkey SCF; assay: competition ELISA: cSCF binding to coated human SCFR, Fab 3.1 µg/ml
Description: The extracts containing Fab were also tested for the ability to inhibit SCF binding to the SCF receptor. ELISA plates were coated overnight with 2 μg/ml human SCFR (R&D Systems, Minneapolis, Minn.) in PBS at 4° C. After washing with TBS-T, the plate was blocked with 5 mg/ml BSA in PBS. The extract was diluted 1/5 in PBS buffer containing 12.5 ng/ml cSCF and 1 mg/ml BSA. After a 1 hr incubation at room temperature, 100 μl was added to the blocked ELISA plate and incubated an additional hour. The plate was washed 5 times with TBS-T, and 100 μl of a 0.4 μg/ml solution of anti-SCF (R&D Systems) in 1 mg/ml BSA in PBS was added. After 1 hour the plate was washed and incubated with anti-Mouse-HRP (Sigma, St. Louis, Mo.). The plate was developed with BM Blue POD substrate (Roche Diagnostics, Chicago, Ill.) and read at 370 nm.
as §1

human Stem Cell Factor [4] = target: T2, human Stem Cell Factor (human, UniProt P21583 26-189); assay: cell-based or functional assay
T2 sequence (P21583 other isoform, or with tags, fused parts or gaps limits assumed): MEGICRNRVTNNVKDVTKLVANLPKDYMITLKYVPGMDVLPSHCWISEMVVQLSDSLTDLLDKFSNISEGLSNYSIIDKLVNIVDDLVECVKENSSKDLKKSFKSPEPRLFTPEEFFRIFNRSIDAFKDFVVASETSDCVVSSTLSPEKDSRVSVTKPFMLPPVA

human Stem Cell Factor [5] = target: T2, human Stem Cell Factor; assay: cell-based or functional assay; remark: listed apart in the source
human Stem Cell Factor [6] = target: T2, human Stem Cell Factor; assay: SPR BIAcore 2000, Fab over 150 RU immobilized hSCF
Description: (§2) Affinity measurements were carried out on a BIAcore 2000 (Biacore) at 25° C. […] Purified Fab's were diluted in HBS-EP running buffer at concentrations ranging from 1.95 to 125 nM. A volume of 100 μl was injected using a flow rate of 50 μl/min in Kinject mode. After a 10 min dissociation, 50 μl of 10 mM Glycine, pH 2.5 and 25 μl of 10 mM Glycine, pH 2.0 was injected using a flow rate of 100 μl/min. All samples were run in duplicate. […] Cynomologus monkey SCF was diluted in HBS-EP running buffer at concentrations ranging from 15.6 to 500 nM and 150 μl injected at a flow rate of 50 μl/min. After a 15 min dissociation, 50 μl of 10 mM Glycine, pH 2.5, and 25 μl of 10 mM Glycine, pH 1.5 was injected using a flow rate of 100 μl/min. All samples were run in duplicate. The data was globally fit to the 1 to 1 binding model using BIAevaluation software. The raw experimental data were corrected for instrumental and bulk solvent artifacts by double referencing using both activated and blocked surfaces as controls.
(§3) To evaluate the binding properties of anti-SCF Fabs selected from affinity optimization of the CDR3 loop with SCF, the real time interaction was measured using surface plasmon resonance with the BIAcore 2000. […] The improvement in Kd's are primarily governed by a substantial reduction in the off-rate (koff). […] The affinity constants for Fab binding to human SCF were slightly lower than those Kd's for cynomologus monkey SCF. The panning design, with lower antigen concentrations and extensive washing steps, favors off-rate selection. The affinity of the A2-G8 clone in an IgG vector was measured using the IgG immobilized to the surface of the CM5 chip.

Cynomolgus Monkey SCF [7] = target: T1, Cynomolgus Monkey SCF; assay: SPR BIAcore 2000, Fab over 185 RU immobilized cSCF
Description: as §2, §3

human Stem Cell Factor [8] = target: T2, human Stem Cell Factor; assay: cell-based or functional assay; remark: listed apart in the source
human Stem Cell Factor [9] = target: T2, human Stem Cell Factor; assay: BIAcore, Affinity Estimation, Fab
Cynomolgus Monkey SCF [10] = target: T1, Cynomolgus Monkey SCF; assay: cell-based or functional assay; remark: listed apart in the source
human Stem Cell Factor [11] = target: T2, human Stem Cell Factor; assay: cell-based or functional assay; remark: listed apart in the source
human Stem Cell Factor [12] = target: T2, human Stem Cell Factor; assay: BIAcore, Fab on immobilized SCF

Binder	IC50 TF-1 cynoSCF Assay (Cynomolgus Monkey SCF [1]) [µg/mL]	koff (Cynomolgus Monkey SCF [2]) [s⁻¹]	% Inhibition SCF Binding ELISA Assay (Cynomolgus Monkey SCF [3]) [%]	TF-1 proliferation IC50, fold lower than the A2-G8 Mab (human Stem Cell Factor [4]) [fold]	IC50 TF-1 huSCF Assay (human Stem Cell Factor [5]) [µg/mL]	Kd (human Stem Cell Factor [6]) [nM]	koff (human Stem Cell Factor [6]) [s⁻¹]	kon (human Stem Cell Factor [6]) [M⁻¹ s⁻¹]	Kd (Cynomolgus Monkey SCF [7]) [nM]	koff (Cynomolgus Monkey SCF [7]) [s⁻¹]	kon (Cynomolgus Monkey SCF [7]) [M⁻¹ s⁻¹]	TF-1 Fab assay IC50 (human Stem Cell Factor [8]) [µg/mL]	Kd (human Stem Cell Factor [9]) [nM]	percent inhibition of SCF-induced TF-1 proliferation at 200 ug/ml Fab (human Stem Cell Factor [4]) [%]	percent inhibition of SCF-induced TF-1 proliferation at 200 ug/ml Fab (Cynomolgus Monkey SCF [10]) [%]	Efficacy IC50 (TF-1 proliferation assay, Fab) (human Stem Cell Factor [11]) [µg/mL]	Kd (human Stem Cell Factor [12]) [nM]
Fab A8 (light chain CDR3 variant of A2-G8) (Fab, V domains shown, It carries FLAG and Strep tags) VH: not shown VL: QMTQSPSSLSASVGDRVTITCRASQGIRGYLGWYQQKPGKAPKLLIYSASSLQSGVPSRFSGSGSGTDFTLTISSLQPEDFATYYCCSAGFMPYTFGQGTKVEIKR	4.64	0.00075	70	–	–	–	–	–	–	–	–	–	–	–	–	–	–
Fab B1 (Fab, V domains shown, It carries FLAG and Strep tags) VH: not shown VL: QMTQSPSSLSASVGDRVTITCRASQGIRGYLGWYQQKPGKAPKLLIYSASSLQSGVPSRFSGSGSGTDFTLTISSLQPEDFATYYCAEYIRMPYTFGQGTKVEIKR	2.07	0.00041	65	≥ 6	0.14	1.6	0.0005	320000	4.9	0.00104	210000	–	–	–	–	–	–
Fab F5L (Fab, V domains shown, Light chain CDR3 variant of Fab A2-G8; It carries FLAG and Strep tags) VH: not shown VL: QMTQSPSSLSASVGDRVTITCRASQGIRGYLGWYQQKPGKAPKLLIYSASSLQSGVPSRFSGSGSGTDFTLTISSLQPEDFATYYCSAHGFMPYTFGQGTKVEIKR	0.78	0.00024	85	≥ 6	0.17	1.3	0.00022	170000	2.6	0.00028	110000	–	–	–	–	–	–
Fab B9 (Fab, V domains shown, It carries FLAG and Strep tags; also called B9L) VH: not shown VL: QMTQSPSSLSASVGDRVTITCRASQGIRGYLGWYQQKPGKAPKLLIYSASSLQSGVPSRFSGSGSGTDFTLTISSLQPEDFATYYCAGTGFMPYTFGQGTKVEIKR	5.45	0.00048	70	–	2.01	1.7	0.0005	300000	4.3	0.00079	190000	–	–	–	–	–	–
Fab A12 (Fab, V domains shown, Light chain CDR3 variant of Fab A2-G8; It carries FLAG and Strep tags) VH: not shown VL: QMTQSPSSLSASVGDRVTITCRASQGIRGYLGWYQQKPGKAPKLLIYSASSLQSGVPSRFSGSGSGTDFTLTISSLQPEDFATYYCGEWAYMPYTFGQGTKVEIKR	1.65	0.00044	68	≥ 6	0.38	1.8	0.00046	250000	5.5	0.00087	160000	–	–	–	–	–	–
Fab D6L (Fab, V domains shown, Light chain CDR3 variant of Fab A2-G8; It carries FLAG and Strep tags) VH: not shown VL: QMTQSPSSLSASVGDRVTITCRASQGIRGYLGWYQQKPGKAPKLLIYSASSLQSGVPSRFSGSGSGTDFTLTISSLQPEDFATYYCGEWLSMPYTFGQGTKVEIKR	1.46	0.0003	70	≥ 6	0.19	1.4	0.00027	190000	5.4	0.00073	130000	–	–	–	–	–	–
Fab D5 (light chain CDR3 variant of A2-G8) (Fab, V domains shown, It carries FLAG and Strep tags) VH: not shown VL: QMTQSPSSLSASVGDRVTITCRASQGIRGYLGWYQQKPGKAPKLLIYSASSLQSGVPSRFSGSGSGTDFTLTISSLQPEDFATYYCASQGWMPYTFGQGTKVEIKR	0.48	0.00027	75	≥ 6	0.09	0.8	0.00024	290000	3.6	0.00069	190000	–	–	–	–	–	–
Fab A2-A1 (Fab, V domains shown) VH: not shown VL: DIQMTQSPSSLSASVGDRVTITCRASQGISSYLAWYQQKPGKAPKLLIYAASSLQSGVPSRFSGSGSGTDFTLTISSLQPEDFATYYCQQYSGMPYTFGQGTKVEIK	–	–	–	–	–	–	–	–	–	–	–	25	57	–	–	–	–
Fab A2-D12 (Fab, V domains shown) VH: not shown VL: DIQMTQSPSSLSASVGDRVTITCRASQGIWLYLSWYQQKPGKAPKLLIYAASSLQSGVPSRFSGSGSGTDFTLTISSLQPEDFATYYCQQYSGMPYTFGQGTKVEIK	–	–	–	–	–	–	–	–	–	–	–	–	18	–	–	–	–
Fab A2-H8 (Fab, V domains shown) VH: not shown VL: DIQMTQSPSSLSASVGDRVTITCRASQGIIGYLGWYQQKPGKAPKLLIYRASSLQSGVPSRFSGSGSGTDFTLTISSLQPEDFATYYCQQYSGMPYTFGQGTKVEIK	–	–	–	–	–	–	–	–	–	–	–	25	44	–	–	–	–
Fab A2-E8 (Fab, V domains shown) VH: not shown VL: DIQMTQSPSSLSASVGDRVTITCRASQGIFKYLAWYQQKPGKAPKLLIYAASSLQSGVPSRFSGSGSGTDFTLTISSLQPEDFATYYCQQYSGMPYTFGQGTKVEIK	–	–	–	–	–	–	–	–	–	–	–	8	17	–	–	–	–
Fab A8 (first screen, Vλ1) (Fab, V domains shown, It carries FLAG and Strep tags) VH: not shown VL: DIVLTQPPSVSGAPGQRVTISCSGSSSNIGSNYVSWYQQLPGTAPKLLIYDNNQRPSGVPDRFSGSKSGTSASLAITGLQSEDEADYYCQSRDHYVVRWVFGGGTKLTVL	–	–	–	–	–	–	–	–	–	–	–	–	–	> 100	> 100	30	9.7
